Test results: patent US20240352438A1, “MEANS AND METHODS FOR DETOXIFYING OCHRATOXIN A” (DSM Austria GmbH, priority 2021, published 2024)

Test: OTA detoxification activity assay (specific activity, fluorescence reduction ex/em 390/450 nm)
Type: biochemical
Details: SEQ ID NO: 1 = 100%
Method: To determine the specific activity of recombinant target polypeptides produced e.g. as described in Example 2 above in units per liter (U/L), ochratoxin A (OTA) detoxification activity assays were performed. One unit is defined as the amount of enzyme necessary for degradation of 1 μmol or OTA in 1 min when using a starting OTA concentration of […].
OTA detoxification activity assays were set up in a final volume of the reaction mixture of […], containing the recombinant enzyme preparation (preferably diluted to yield a volumetric activity of 1-10 mU/L), and 200 ng/mL OTA in 100 mM sodium phosphate buffer.
Specific activities were determined at pH 6.0 and pH 7.5. As soon as all components of the reaction mixture were mixed, OTA degradation was followed at 37° C. on a fluorescence spectrophotometer (BioTek Synergy H1 MFD Multimode microplate reader) by following the reduction in fluorescence at ex/em 390 nm/450 nm. For work performed at pH 6.0 and 7.5, a 100 mM sodium phosphate buffer was used.
For calculation of the specific activity, the initial linear part of the recorded fluorescence reduction curve was used. In addition to the fluorescence-based method described above, OTA degradation was also determined by using the HPLC-MS method as described by Dellafiora et al. 2020, Toxins 12, 258, essentially confirming the fluorescence-based results. Genes encoding either of the indicated SEQ ID NOs are expressed as described herein and the specific activities for the obtained polypeptide preparation are exemplarily shown in Table 8. Analogously, enzymatic activities using either ochratoxin B, C or TA as substrate or can be found.

Row | Molecule | Specific OTA detoxification activities in % compared to the enzyme of SEQ ID NO: 1, pH 6.0 | Specific OTA detoxification activities in % compared to the enzyme of SEQ ID NO: 1, pH 7.5
1 | 229 (protein, exemplary polypeptide) MTTRTRILTAFLSLLAANACAADAAPAAPHTVVLRAARMFDGASGKLVDHPQLTIVGNKIVRIAQGDKAEVPAGAEVVDLGDATLLPGFIDAHVHLSGQSSDNWYGDFFDNMMRFPAEQALYGAYYARITLEAGFTSVRDVGSTDWVALGLRNAIDAGKVPGPRMLVSNYAVGSTGGHADQDPIPPHKLPLAGPLQGVCNGPEECRAAVRYQIKYGANVIKFMPSGGVLPLSDPVDAPELSQDEMNAVIGESHAWGRKVAAHAHGDKAAKMAVAAGVDSIEHGSFIEDDTLRAMKAKNVYLVPTISAIAHVEEKIGTFPPVIAEKGRAAAAHLRQTFRHAVQIGVPIALGTDAGVGAHGSNAREFRYMVENGLTPAQALLAGTANAARLLGTFDRVGTLEAGKLADVVAVPGNPIADITVTERPLFVMKDGVVVRRDAVR | 21% | 15%
2 | 250 (protein, exemplary polypeptide) MTTRTRILTAFLSLLAANACAADAAPAAPHTVVLRAARMFDGASGKLVDHPQLTIVGNKIVRIAQGDKAEVPAGAEVVDLGDATLLPGFIDAHVHLSGQSSDNWYGDFFDNMMRFPAEQALYGAYYARITLEAGFTSVRDVGSTDWVALGLRNAIDAGKVPGPRMLVSNYAVGSTGGHADQDPIPPHKLPLAGPLQGVCNGPEECRAAVRYQIKYGANVIKFMPSGGVLSLSDPVDAPELSQDEMNAVIGESHAWGRKVAAHAHGDKAAKMAVAAGVDSIEHGSFIEDDTLRAMKAKNVYLVPTISAIAHVEEKIGTFPPVIAEKGRAAAAHLRQTFRHAVQIGVPIALGTDAGVGAKGSNAREFRYMVENGLTPAQALLAGTANAARLLGTFDRVGTLEAGKLADVVAVPGNPIADITVTERPLFVMKDGVVVRRDAVR | 17% | 21%
3 | 249 (protein, exemplary polypeptide) MTTRTRILTAFLSLLAANACAADAAPAAPHTVVLRAARMFDGASGKLVDHPQLTIVGNKIVRIAQGDKAEVPAGAEVVDLGDATLLPGFIDAHVHLSGQSSDNWYGDFFDNMMRFPAEQALYGAYYARITLEAGFTSVRDVGSTDWVALGLRNAIDAGKVPGPRMLVSNYAVGSTGGHADQDPIPPHKLPLAGPLQGVCNGPEECRAAVRYQIKYGANVIKFMPSGGVLSLSDPVDAPELSQDEMNAVIGESHAWGRKVAAHAHGDKAAKMAVAAGVDSIEHGSFIEDDTLRAMKAKNVYLVPTISAIAHVEEKIGTFPPVIAEKGRAAAAHLRQTFRHAVQIGVPIALGTDAGVGAAGSNAREFRYMVENGLTPAQALLAGTANAARLLGTFDRVGTLEAGKLADVVAVPGNPIADITVTERPLFVMKDGVVVRRDAVR | 21% | 26%
4 | 252 (protein, exemplary polypeptide) MTTRTRILTAFLSLLAANACAADAAPAAPHTVVLRAARMFDGASGKLVDHPQLTIVGNKIVRIAQGDKAEVPAGAEVVDLGDATLLPGFIDAHVHLSGQSSDNWYGDFFDNMMRFPAEQALYGAYYARITLEAGFTSVRDVGSTDWVALGLRNAIDAGKVPGPRMLVSNYAVGSTGGHADQDPIPPHKLPLAGPLQGVCNGPEECRAAVRYQIKYGANVIKFMPSGGVLSLSDPVDAPELSQDEMNAVIGESHAWGRKVAAHAHGDKAAKMAVAAGVDSIEHGSFIEDDTLRAMKAKNVYLVPTISAIAHVEEKIGTFPPVIAEKGRAAAAHLRQTFRHAVQIGVPIALGTDAGVGAHGSEAREFRYMVENGLTPAQALLAGTANAARLLGTFDRVGTLEAGKLADVVAVPGNPIADITVTERPLFVMKDGVVVRRDAVR | 32% | 13%
5 | 251 (protein, exemplary polypeptide) MTTRTRILTAFLSLLAANACAADAAPAAPHTVVLRAARMFDGASGKLVDHPQLTIVGNKIVRIAQGDKAEVPAGAEVVDLGDATLLPGFIDAHVHLSGQSSDNWYGDFFDNMMRFPAEQALYGAYYARITLEAGFTSVRDVGSTDWVALGLRNAIDAGKVPGPRMLVSNYAVGSTGGHADQDPIPPHKLPLAGPLQGVCNGPEECRAAVRYQIKYGANVIKFMPSGGVLSLSDPVDAPELSQDEMNAVIGESHAWGRKVAAHAHGDKAAKMAVAAGVDSIEHGSFIEDDTLRAMKAKNVYLVPTISAIAHVEEKIGTFPPVIAEKGRAAAAHLRQTFRHAVQIGVPIALGTDAGVGANGSNAREFRYMVENGLTPAQALLAGTANAARLLGTFDRVGTLEAGKLADVVAVPGNPIADITVTERPLFVMKDGVVVRRDAVR | 53% | 33%
6 | 233 (protein, exemplary polypeptide) MTTRTRILTAFLSLLAANACAADAAPAAPHTVVLRAARMFDGASGKLVDHPQLTIVGNKIVRIAQGDKAEVPAGAEVVDLGDATLLPGFIDAHVHLSGQSSDNWYGDFFDNMMRFPAEQALYGAYYARITLEAGFTSVRDVGSTDWVALGLRNAIDAGKVPGPRMLVSNYAVGSTGGHADQDPIPPHKLPLAGPLQGVCNGPEECRAAVRYQIKYGANVIKFMPSGGVLSLSSPVDAPELSQDEMNAVIGESHAWGRKVAAHAHGDKAAKMAVAAGVDSIEHGSFIEDDTLRAMKAKNVYLVPTISAIAHVEEKIGTFPPVIAEKGRAAAAHLRQTFRHAVQIGVPIALGTDAGVGAHGSNAREFRYMVENGLTPAQALLAGTANAARLLGTFDRVGTLEAGKLADVVAVPGNPIADITVTERPLFVMKDGVVVRRDAVR | 11% | 17%
7 | 258 (protein, exemplary polypeptide) MTTRTRILTAFLSLLAANACAADAAPAAPHTVVLRAARMFDGASGKLVDHPQLTIVGNKIVRIAQGDKAEVPAGAEVVDLGDATLLPGFIDAHVHLSGQSSDNWYGDFFDNMMRFPAEQALYGAYYARITLEAGFTSVRDVGSTDWVALGLRNAIDAGKVPGPRMLVSNYAVGSTGGHADQDPIPPHKLPLAGPLQGVCNGPEECRAAVRYQIKYGANVIKFMPSGGVLSLSDPVDAPELSQDEMNAVIGESHAWGRKVAAHAHGDKAAKMAVAAGVDSIEHGDFIEDDTLRAMKAKNVYLVPTISAIAHVEEKIGTFPPVIAEKGRATAAHLRQTFRHAVQIGVPIALGTDAGVGAHGSNAREFRYMVENGLTPAQALLAGTANAARLLGTFDRVGTLEAGKLADVVAVPGNPIADITVTERPLFVMKDGVVVRRDAVR | 29% | 25%
8 | 257 (protein, exemplary polypeptide) MTTRTRILTAFLSLLAANACAADAAPAAPHTVVLRAARMFDGASGKLVDHPQLTIVGNKIVRIAQGDKAEVPAGAEVVDLGDATLLPGFIDAHVHLSGQSSDNWYGDFFDNMMRFPAEQALYGAYYARITLEAGFTSVRDVGSTDWVALGLRNAIDAGKVPGPRMLVSNYAVGSTGGHADQDPIPPHKLPLAGPLQGVCNGPEECRAAVRYQIKYGANVIKFMPSGGVLSLSDPVDAPELSQDEMNAVIGESHAWGRKVAAHAHGDKAAKMAVAAGVDSIEHGDFIEDDTLRAMKAKNVYLVPTISAIAHVEEKIGTFPPVIAEKGRASAAHLRQTFRHAVQIGVPIALGTDAGVGAHGSNAREFRYMVENGLTPAQALLAGTANAARLLGTFDRVGTLEAGKLADVVAVPGNPIADITVTERPLFVMKDGVVVRRDAVR | 34% | 15%
9 | 236 (protein, exemplary polypeptide) MTTRTRILTAFLSLLAANACAADAAPAAPHTVVLRAARMFDGASGKLVDHPQLTIVGNKIVRIAQGDKAEVPAGAEVVDLGDATLLPGFIDAHVHLSGQSSDNWYGDFFDNMMRFPAEQALYGAYYARITLEAGFTSVRDVGSTDWVALGLRNAIDAGKVPGPRMLVSNYAVGSTGGHADQDPIPPHKLPLAGPLQGVCNGPEECRAAVRYQIKYGANVIKFMPSGGVLSLSDPVDAPELSQDEMNAVIGESHAWGRKVAAHAHGDKAAKMAVAAGVDSIEHGDFIEDDTLRAMKAKNVYLVPTISAIAHVEEKIGTFPPVIAEKGRAAAAHLRQTFRHAVQIGVPIALGTDAGVGAHGSNAREFRYMVENGLTPAQALLAGTANAARLLGTFDRVGTLEAGKLADVVAVPGNPIADITVTERPLFVMKDGVVVRRDAVR | 19% | 15%
10 | 254 (protein, exemplary polypeptide) MTTRTRILTAFLSLLAANACAADAAPAAPHTVVLRAARMFDGASGKLVDHPQLTIVGNKIVRIAQGDKAEVPAGAEVVDLGDATLLPGFIDAHVHLSGQSSDNWYGDFFKNMMRFPAEQALYGAYYARITLEAGFTSVRDVGSTDWVALGLRNAIDAGKVPGPRMLVSNYAVGSTGGHADQDPIPPHDLPLAGPLQGVCNGPEECRAAVRYQIKYGANVIKFMPSGGVLSLSDPVDAPELSQDEMNAVIGESHAWGRKVAAHAHGDKAAKMAVAAGVDSIEHGSFIEDDTLRAMKAKNVYLVPTISAIAHVEEKIGTFPPVIAEKGRAAAAHLRQTFRHAVQIGVPIALGTDAGVGAHGSNAREFRYMVENGLTPAQALLAGTANAARLLGTFDRVGTLEAGKLADVVAVPGNPIADITVTERPLFVMKDGVVVRRDAVR | 32% | 15%
